Our source for the Kd values is paper PMC8636641.

The test system of this data set is dTao (Drosophila melanogaster). Description: fluorescence quenching (initial fluorescence, MST instrument). To be noted: inosine homopolymer strand; Pull-down: TAP buffer 50 mM Tris pH 7.5, 100 mM NaCl, 5% glycerol, 0.2% NP-40, 1.5 mM MgCl2, 60 min; quenching assay buffer not stated (dTao storage 20 mM Tris …).

One may read the Kd as the constant that tells how readily two partners part at equilibrium. A high value points to lower affinity.

On to FITC-poly(I:C), for which the Kd was 42 nM.
